Reference: the RNAGym collection of RNA variant scans (doi:10.7554/elife.80360)

B1: HDV Ribozyme (parent)
chain: GGCCGGCAUGGUCCCAGCCUCCUCGCUGGCGCCGGCUGGGCAACAUUCCGAGGGGACCGUCCCCUCGGUAAUGGCGAAUGGGACCCA

Variants of: B1
Assay: self-cleavage, relative activity (ratio to wild type); higher = more cleavage; co-transcriptional

Variant | self-cleavage
GGCCGGCAUGGUCCCAGCCUCCUCGCUGGCGCCGGCCGGGUAACAUUCCGAGGGGACCGUCCCCUCGGUAAUGGCGAAUGGGACCCA [U37C C41U] | 1.29
GGCCGGCAUGGUCCCAGCCUCCUCGCUGGCGCCGGCCGGGAAACAUUCCGAGGGGACCGUCCCCUCGGUAAUGGCGAAUGGGACCCA [U37C C41A] | 0.929
GGCCGGCAUGGUCCCAGCCUCCUCGCUGGCGCCGGCAGGGCAACAUUCCGAGGGGACCGUCCCCUCGGUAAUGGCGAACGGGACCCA [U37A U79C] | 0.0623
GGCCGGCAUGGUCCCAGCCUCCUCGCUGGCGCCGGCAGGGCAACAUUCCGAGGGGACCGUCCCCUCGGUAAUGGCGAAGGGGACCCA [U37A U79G] | 0
GGCCGGCAUGGUCCCAGCCUCCUCGCUGGCGCCGGCCGGGCGACAUUCCGAGGGGACCGUCCCCUCGGUAAUGGCGAAUGGGACCCA [U37C A42G] | 0.795
GGCCGGCAUGGUCCCAGCCUCCUCGCUGGCGCCGGCAGCGCAACAUUCCGAGGGGACCGUCCCCUCGGUAAUGGCGAAUGGGACCCA [U37A G39C] | 0
GGCCGGCAUGGUCCCAGCCUCCUCGCUGGCGCCGGCAGGGCAACAUUCCGAGGGGACCAUCCCCUCGGUAAUGGCGAAUGGGACCCA [U37A G59A] | 0.237
GGCCGGCAUGGUCCCAGCCUCCUCGCUGGCGCCGGCAGGGCAACAUUCCGAGGGGACCCUCCCCUCGGUAAUGGCGAAUGGGACCCA [U37A G59C] | 0.224
GGCCGGCAUGGUCCCAGCCUCCUCGCUGGCGCCGGCCGGGCAACAUUCUGAGGGGACCGUCCCCUCGGUAAUGGCGAAUGGGACCCA [U37C C49U] | 0.928
GGCCGGCAUGGUCCCAGCCUCCUCGCUGGCGCCGGCCGGGCAACAUUCAGAGGGGACCGUCCCCUCGGUAAUGGCGAAUGGGACCCA [U37C C49A] | 1.31
GGCCGGCAUGGUCCCAGCCUCCUCGCUGGCGCCGGCCGGGCAACAUUCCGAGGGGACCGUCCCCUCGGUGAUGGCGAAUGGGACCCA [U37C A70G] | 1.23
GGCCGGCAUGGUCCCAGCCUCCUCGCUGGCGCCGGCCGGGCAACCUUCCGAGGGGACCGUCCCCUCGGUAAUGGCGAAUGGGACCCA [U37C A45C] | 0.539
GGCCGGCAUGGUCCCAGCCUCCUCGCUGGCGCCGGCCGGGCAACGUUCCGAGGGGACCGUCCCCUCGGUAAUGGCGAAUGGGACCCA [U37C A45G] | 0.762
GGCCGGCAUGGUCCCAGCCUCCUCGCUGGCGCCGGCCGGGCAACAUUCCGAGGGGAACGUCCCCUCGGUAAUGGCGAAUGGGACCCA [U37C C57A] | 1
GGCCGGCAUGGUCCCAGCCUCCUCGCUGGCGCCGGCCGGGCAACAUUCCGAGGGGAUCGUCCCCUCGGUAAUGGCGAAUGGGACCCA [U37C C57U] | 0.875
GGCCGGCAUGGUCCCAGCCUCCUCGCUGGCGCCGGCCGGGCAACAUUGCGAGGGGACCGUCCCCUCGGUAAUGGCGAAUGGGACCCA [U37C C48G] | 1.04

Variant | self-cleavage
GGCCGGCAUGGUCCCAGCCUCCUCGCUGGCGCCGGCCGGGCAACAUUACGAGGGGACCGUCCCCUCGGUAAUGGCGAAUGGGACCCA [U37C C48A] | 1.13
GGCCGGCAUGGUCCCAGCCUCCUCGCUGGCGCCGGCCGGGCACCAUUCCGAGGGGACCGUCCCCUCGGUAAUGGCGAAUGGGACCCA [U37C A43C] | 0.308
GGCCGGCAUGGUCCCAGCCUCCUCGCUGGCGCCGGCAGGGCAACACUCCGAGGGGACCGUCCCCUCGGUAAUGGCGAAUGGGACCCA [U37A U46C] | 0.0852
GGCCGGCAUGGUCCCAGCCUCCUCGCUGGCGCCGGCAGGGCAACAGUCCGAGGGGACCGUCCCCUCGGUAAUGGCGAAUGGGACCCA [U37A U46G] | 0.128
GGCCGGCAUGGUCCCAGCCUCCUCGCUGGCGCCGGCAGGGCAACAAUCCGAGGGGACCGUCCCCUCGGUAAUGGCGAAUGGGACCCA [U37A U46A] | 0.185
GGCCGGCAUGGUCCCAGCCUCCUCGCUGGCGCCGGCAGGGCAACAUUCCGAGGGGACCGCCCCCUCGGUAAUGGCGAAUGGGACCCA [U37A U60C] | 0.192
GGCCGGCAUGGUCCCAGCCUCCUCGCUGGCGCCGGCAGGGCAACAUUCCGAGGGGACCGACCCCUCGGUAAUGGCGAAUGGGACCCA [U37A U60A] | 0.111
GGCCGGCAUGGUCCCAGCCUCCUCGCUGGCGCCGGCAGGGCAACAUUCCGAGGGGACCGUCCCCUCGGUAAUGGCGAAUGCGACCCA [U37A G81C] | 0.227
GGCCGGCAUGGUCCCAGCCUCCUCGCUGGCGCCGGCAGGGCAACAUUCCGAGGGGACCGUCCCCUCGGUAAUGGCGAAUGUGACCCA [U37A G81U] | 0.0875
GGCCGGCAUGGUCCCAGCCUCCUCGCUGGCGCCGGCAGGGCAACAUUCCGAGGGGACCGUCCCCUCGGUAAUAGCGAAUGGGACCCA [U37A G73A] | 0.0346
GGCCGGCAUGGUCCCAGCCUCCUCGCUGGCGCCGGCAGGGCAACAUUCCGAGGGGACCGUCCCCUCGGUAAUCGCGAAUGGGACCCA [U37A G73C] | 0.0378
GGCCGGCAUGGUCCCAGCCUCCUCGCUGGCGCCGGCAGGGCAACAUUCCGAGGGGACCGUCCCCUCGGUAAUUGCGAAUGGGACCCA [U37A G73U] | 0.225
GGCCGGCAUGGUCCCAGCCUCCUCGCUGGCGCCGGCAGGGCAACAUUCCGAAGGGACCGUCCCCUCGGUAAUGGCGAAUGGGACCCA [U37A G52A] | 0.145
GGCCGGCAUGGUCCCAGCCUCCUCGCUGGCGCCGGCAGGGCAACAUUCCGAUGGGACCGUCCCCUCGGUAAUGGCGAAUGGGACCCA [U37A G52U] | 0.214
GGCCGGCAUGGUCCCAGCCUCCUCGCUGGCGCCGGCAGGGCAACAUUCCGAGGGGACCGUCCCCUCGCUAAUGGCGAAUGGGACCCA [U37A G68C] | 0.0405
GGCCGGCAUGGUCCCAGCCUCCUCGCUGGCGCCGGCAGGGCAACAUUCCGAGGGGACCGUCCCCUCGAUAAUGGCGAAUGGGACCCA [U37A G68A] | 0.381
